# In patent publication US20160230173A1:
# T1: Wild-type glucocorticoid receptor, Myc-DDK tagged NR3C1 (Origene catalog # RC220189), substrate of the CASP1 enzymatic assay
# T1 chain: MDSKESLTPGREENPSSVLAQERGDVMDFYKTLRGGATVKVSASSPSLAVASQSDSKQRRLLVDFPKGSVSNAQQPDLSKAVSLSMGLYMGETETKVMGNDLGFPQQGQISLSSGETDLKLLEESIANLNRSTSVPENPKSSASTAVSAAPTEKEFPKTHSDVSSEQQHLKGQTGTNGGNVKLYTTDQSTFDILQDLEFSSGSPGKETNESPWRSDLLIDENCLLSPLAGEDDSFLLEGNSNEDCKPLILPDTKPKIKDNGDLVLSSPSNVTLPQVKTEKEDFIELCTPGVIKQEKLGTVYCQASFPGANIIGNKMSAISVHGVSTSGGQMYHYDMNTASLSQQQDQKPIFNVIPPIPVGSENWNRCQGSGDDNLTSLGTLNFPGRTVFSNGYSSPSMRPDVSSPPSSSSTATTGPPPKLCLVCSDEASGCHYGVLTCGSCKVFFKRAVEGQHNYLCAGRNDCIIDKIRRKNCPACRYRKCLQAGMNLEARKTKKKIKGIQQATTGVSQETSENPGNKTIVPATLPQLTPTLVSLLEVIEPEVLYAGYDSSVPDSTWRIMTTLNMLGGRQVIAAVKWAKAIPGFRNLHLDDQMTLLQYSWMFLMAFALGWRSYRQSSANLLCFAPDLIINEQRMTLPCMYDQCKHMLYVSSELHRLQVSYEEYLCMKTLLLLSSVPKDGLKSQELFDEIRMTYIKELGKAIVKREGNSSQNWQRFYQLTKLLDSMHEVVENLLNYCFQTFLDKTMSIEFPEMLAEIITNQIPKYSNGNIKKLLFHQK
# B1: Recombinant human CASP1 (Enzo Life Sciences CASP1 assay kit for drug discovery, catalog number BML-AK701-0001) (protein)
# chain: NPAMPTSSGSEGNVKLCSLEEAQRIWKQKSAEIYPIMDKSSRTRLALIICNEEFDSIPRRTGAEVDITGMTMLLQNLGYSVDVKKNLTASDMTTELEAFAHRPEHKTSDSTFLVFMSHGIREGICGKKHSEQVPDILQLNAIFNMLNTKNCPSLKDKPKVIIIQACRGDSPGVVWFKDSVGVSGNLSLPTTEEFEDDAIKKAHIEKDFIAFCSSTPDNVSWRHPTMGSVFIGRLIEHMQEYACSCDVEEIFRKVRFSFEQPDGRAQMPTTERVTLTRCFYLFPGH
# Target: T1, Wild-type glucocorticoid receptor, …
protein,measurement,value
B1,cleavage of GR in CASP1 enzymatic assay (western blot),enzymatic assays were performed that revealed glucocorticoid receptor (NR3C1) cleavage by recombinant CASP1
